According to patent US20260266848A1, “COMPOSITIONS AND METHODS FOR DIAGNOSING AND TREATING DYSTONIA” (Duke University, priority 2023, published 2026):

B1: Aco1 (protein, UniProt P28271 1-889, looked up)
Cytoplasmic aconitate …: MKNPFAHLAEPLDAAQPGKRFFNLNKLEDSRYGRLPFSIRVLLEAAVRNCDEFLVKKNDIENILNWNVMQHKNIEVPFKPARVILQDFTGVPAVVDFAAMRDAVKKLGGNPEKINPVCPADLVIDHSIQVDFNRRADSLQKNQDLEFERNKERFEFLKWGSQAFCNMRIIPPGSGIIHQVNLEYLARVVFDQDGCYYPDSLVGTDSHTTMIDGLGVLGWGVGGIEAEAVMLGQPISMVLPQVIGYKLMGKPHPLVTSTDIVLTITKHLRQVGVVGKFVEFFGPGVAQLSIADRATIANMCPEYGATAAFFPVDEVSIAYLLQTGREEDKVKHIQKYLQAVGMFRDFNDTSQDPDFTQVVELDLKTVVPCCSGPKRPQDKVAVSEMKKDFESCLGAKQGFKGFQVAPDRHNDRKTFLYSNSEFTLAHGSVVIAAITSCTNTSNPSVMLGAGLLAKKAVEAGLSVKPYIKTSLSPGSGVVTYYLRESGVMPYLSQLGFDVVGYGCMTCIGNSGPLPEPVVEAITQGDLVAVGVLSGNRNFEGRVHPNTRANYLASPPLVIAYAIAGTVRIDFEKEPLGVNAQGRQVFLKDIWPTRDEIQAVERQHVIPGMFKEVYQKIETVNKSWNALAAPSEKLYAWNPKSTYIKSPPFFESLTLDLQPPKSIVDAYVLLNLGDSVTTDHISPAGNIARNSPAARYLTNRGLTPREFNSYGSRRGNDAIMARGTFANIRLLNKFLNKQAPQTVHLPSGETLDVFDAAERYQQAGLPLIVLAGKEYGSGSSRDWAAKGPFLLGIKAVLAESYERIHRSNLVGMGVIPLEYLPGETADSLGLTGRERYTINIPEDLKPRMTVQIKLDTGKTFQAVMRFDTDVELTYFHNGGILNYMIRKMAQ
B2: Ddr2 (protein, UniProt Q62371 22-854, looked up)
Discoidin domain-containing …: KAQVNPAICRYPLGMSGGHIPDEDITASSQWSESTAAKYGRLDSEEGDGAWCPEIPVQPDDLKEFLQIDLRTLHFITLVGTQGRHAGGHGIEFAPMYKINYSRDGSRWISWRNRHGKQVLDGNSNPYDVFLKDLEPPIVARFVRLIPVTDHSMNVCMRVELYGCVWLDGLVSYNAPAGQQFVLPGGSIIYLNDSVYDGAVGYSMTEGLGQLTDGVSGLDDFTQTHEYHVWPGYDYVGWRNESATNGFIEIMFEFDRIRNFTTMKVHCNNMFAKGVKIFKEVQCYFRSEASEWEPTAVYFPLVLDDVNPSARFVTVPLHHRMASAIKCQYHFADTWMMFSEITFQSDAAMYNNSGALPTSPMAPTTYDPMLKVDDSNTRILIGCLVAIIFILLAIIVIILWRQFWQKMLEKASRRMLDDEMTVSLSLPSESSMFNNNRSSSPSEQESNSTYDRIFPLRPDYQEPSRLIRKLPEFAPGEEESGCSGVVKPAQPNGPEGVPHYAEADIVNLQGVTGGNTYCVPAVTMDLLSGKDVAVEEFPRKLLAFKEKLGEGQFGEVHLCEVEGMEKFKDKDFALDVSANQPVLVAVKMLRADANKNARNDFLKEIKIMSRLKDPNIIRLLAVCITEDPLCMITEYMENGDLNQFLSRHEPLSSCSSDATVSYANLKFMATQIASGMKYLSSLNFVHRDLATRNCLVGKNYTIKIADFGMSRNLYSGDYYRIQGRAVLPIRWMSWESILLGKFTTASDVWAFGVTLWETFTFCQEQPYSQLSDEQVIENTGEFFRDQGRQIYLPQPALCPDSVYKLMLSCWRRETKHRPSFQEIHLLLLQQGAE
B3: Pdia6 (protein, UniProt Q922R8 20-440, looked up)
Protein disulfide-isomerase A6: LYSSSDDVIELTPSNFNREVIQSDGLWLVEFYAPWCGHCQRLTPEWKKAATALKDVVKVGAVNADKHQSLGGQYGVQGFPTIKIFGANKNKPEDYQGGRTGEAIVDAALSALRQLVKDRLGGRSGGYSSGKQGRGDSSSKKDVVELTDDTFDKNVLDSEDVWMVEFYAPWCGHCKNLEPEWAAAATEVKEQTKGKVKLAAVDATVNQVLASRYGIKGFPTIKIFQKGESPVDYDGGRTRSDIVSRALDLFSDNAPPPELLEIINEDIAKKTCEEHQLCVVAVLPHILDTGAAGRNSYLEVLLKLADKYKKKMWGWLWTEAGAQYELENALGIGGFGYPAMAAINARKMKFALLKGSFSEQGINEFLRELSFGRGSTAPVGGGSFPTITPREPWDGKDGELPVEDDIDLSDVELDDLEKDEL
B4: Cd276 (protein, UniProt Q8VE98 29-316, looked up)
CD276 antigen: VEVQVSEDPVVALVDTDATLRCSFSPEPGFSLAQLNLIWQLTDTKQLVHSFTEGRDQGSAYSNRTALFPDLLVQGNASLRLQRVRVTDEGSYTCFVSIQDFDSAAVSLQVAAPYSKPSMTLEPNKDLRPGNMVTITCSSYQGYPEAEVFWKDGQGVPLTGNVTTSQMANERGLFDVHSVLRVVLGANGTYSCLVRNPVLQQDAHGSVTITGQPLTFPPEALWVTVGLSVCLVVLLVALAFVCWRKIKQSCEEENAGAEDQDGDGEGSKTALRPLKPSENKEDDGQEIA
B5: Lmna (protein, UniProt P48678 1-662, looked up)
Prelamin-A/C: METPSQRRATRSGAQASSTPLSPTRITRLQEKEDLQELNDRLAVYIDRVRSLETENAGLRLRITESEEVVSREVSGIKAAYEAELGDARKTLDSVAKERARLQLELSKVREEFKELKARNTKKEGDLLAAQARLKDLEALLNSKEAALSTALSEKRTLEGELHDLRGQVAKLEAALGEAKKQLQDEMLRRVDAENRLQTLKEELDFQKNIYSEELRETKRRHETRLVEIDNGKQREFESRLADALQELRAQHEDQVEQYKKELEKTYSAKLDNARQSAERNSNLVGAAHEELQQSRIRIDSLSAQLSQLQKQLAAKEAKLRDLEDSLARERDTSRRLLAEKEREMAEMRARMQQQLDEYQELLDIKLALDMEIHAYRKLLEGEEERLRLSPSPTSQRSRGRASSHSSQSQGGGSVTKKRKLESSESRSSFSQHARTSGRVAVEEVDEEGKFVRLRNKSNEDQSMGNWQIRRQNGDDPLMTYRFPPKFTLKAGQVVTIWASGAGATHSPPTDLVWKAQNTWGCGSSLRTALINSTGEEVAMRKLVRSLTMVEDNEDDDEDGEELLHHHRGSHCSGSGDPAEYNLRSRTVLCGTCGQPADKAAGGAGAQVGGSISSGSSASSVTVTRSFRSVGGSGGGSFGDNLVTRSYLLGNSSPRSQSSQNC
B6: Srp68 (protein, UniProt Q8BMA6 1-625, looked up)
Signal recognition particle …: MAAEKQIPGGGSGGGGSGSGGGGGGSGGGRSAGGDENKENERPSAGSKANKEFGDSLSLEILQIIKESQQQHGLRHGDFQRYRGYCSRRQRRLRKTLNFKMGNRHKFTGKKVTEELLTDNRYLLLVLMDAERAWSYAMQLKQEANTEPRKRFHLLSRLRKAVKHAEELERLCESNRVDAKTKLEAQAYTAYLSGMLRFEHQEWKSAIEAFNKCKTIYEKLASAFTEEQAVLYNQRVEEISPNIRYCAYNIGDQSAINELMQMRLRSGGTEGLLAEKLEALITQTRAKQAATMSEVEWRGRTVPVKIDKVRIFLLGLADNEAAIVQAESEETKERLFESMLSECRDALQAVREELKPDQKQRDYALDGESGKVSNLQYLHSYLTYIKLSTAIRRNENMAKGLHRALLQQQPEDDSKRSPRPQDLIRLYDIILQNLVELLQLPGLEEDRTFQKEISLKTLVFKAYRCFFIAQSYVLVKKWSEALVLYDRVLKYANEVSSHGGASKNSLKDLPDVQELITQVRSEKCSLQAAAILDANDSHQTDTSSQVKDNTPLVERFESFCLDPSLVTKQANLVHFPPGFQPIPCKPLFFDLALNHVAFPPLEDKLEQKTKSGLTGYIKGIFGFRS

test system: DYT-TOR1A MEF EVs; assay: Quantitative LC-MS/MS proteomics of EVs from drug-treated DYT-TOR1A MEF cultures (ritonavir, salubrinal); assay type: cell-based, mouse; parameters: key to RTV Corrective Direction / RTV Corrective Direction, Grwd1 / RTV Corrective Direction, Srrm2 / RTV Corrective Direction, Rbm17 / RTV Corrective Direction, Dcaf8 / RTV Corrective Direction, Edil3 / RTV Corrective Direction, Timp3 / RTV Corrective Direction, Heatr3 / RTV Corrective Direction, Brd4 / RTV Corrective Direction, P3h4 / RTV Corrective Direction, Pacsin3 / RTV Corrective Direction, Naa50 / RTV Corrective Direction, Lpar6 / RTV Corrective Direction, Ndrg1 / RTV Corrective Direction, Kntc1 / RTV Corrective Direction, Cdk11b / RTV Corrective Direction, Sumo1 / RTV Corrective Direction, Lsm4 / RTV Corrective Direction, Hmga2 / RTV Corrective Direction, Cstf1 / RTV Corrective Direction, Tes / RTV Corrective Direction, Sbno1 / RTV Corrective Direction, Unc119b / RTV Corrective Direction, Cfdp1 / RTV Corrective Direction, Sec61b: YES = protein abundance effect opposite to DYT/WT; conditions: EV protein abundance, DYT + RTV (ritonavir) vs DYT, direction compared with DYT/WT

| Molecule | RTV Corrective Direction |
| --- | --- |
| B1 | YES |
| B2 | YES |
| B3 | YES |
| B4 | YES |
| B5 | YES |
| B6 | YES |

same assay, conditions: EV protein abundance, ritonavir (RTV)-treated DYT vs DYT

| Molecule | DYT + RTV/DYT Cohen's d |
| --- | --- |
| B1 | 3.33 |
| B2 | 0.93 |
| B3 | 3.27 |
| B4 | 1.75 |
| B5 | 3.97 |
| B6 | 2.70 |

test system: WT MEF EVs; assay: Quantitative LC-MS/MS proteomics of EVs from ISRIB-treated WT MEF cultures; assay type: cell-based, mouse; parameters: key to ISRIB and DYT Parallel Direction / ISRIB and DYT Parallel Direction, Ctdsp1 / ISRIB and DYT Parallel Direction, Pcdh19 / ISRIB and DYT Parallel Direction, Tspan7 / ISRIB and DYT Parallel Direction, Myo1e / ISRIB and DYT Parallel Direction, Plpp3 / ISRIB and DYT Parallel Direction, Sh3bp4 / ISRIB and DYT Parallel Direction, Dnajc7 / ISRIB and DYT Parallel Direction, Drg1 / ISRIB and DYT Parallel Direction, Maea: YES = protein abundance effect similar to DYT/WT; conditions: EV protein abundance, ISRIB-treated WT vs WT

| Molecule | WT + ISRIB/WT Cohen's d |
| --- | --- |
| B1 | −1.03 |
| B2 | −7.89 |
| B3 | −1.84 |
| B4 | −2.07 |
| B5 | −0.19 |
| B6 | −1.21 |

same assay, conditions: EV protein abundance, WT + ISRIB vs WT, direction compared with DYT/WT

| Molecule | ISRIB and DYT Parallel Direction |
| --- | --- |
| B1 | YES |
| B2 | YES |
| B3 | YES |
| B4 | YES |
| B5 | YES |
| B6 | YES |
